These results are taken from paper PMC11388340, “HIRA complex deposition of histone H3.3 is driven by histone tetramerization and histone-DNA binding”.

In one data set the target is HIRA-WB;UBN1-NM;H3.3/H4 (human;human;Homo sapiens (H3.3); …, UniProt P54198;Q9NPG3;P84243;P62799 1-473;1-584;2-136;2-103, ||). The data set is described as follows: fluorescence polarization; 20 mM HEPES pH 7.5, 150 mM NaCl, 0.5 mM TCEP, 0.001% Tween-20, 1 mg/ml BSA; 10 nM probe; temperature not stated.
A further data set has as its target H3.3/H4 (Homo sapiens (H3.3); Xenopus laevis (H4), UniProt P84243;P62799 2-136;2-103). Described as above.
A further data set concerns the target HIRA-WB;UBN1-NM;ASF1a-C (human;human;human?, UniProt P54198;Q9NPG3;Q9Y294 1-473;1-584;1-156, ||). In words: fluorescence polarization; no histones; 20 mM HEPES pH 7.5, 150 mM NaCl, 0.5 mM TCEP, 0.001% Tween-20, 1 mg/ml BSA; 10 nM probe; temperature not stated. To be noted: protein: recombinant;recombinant;recombinant; tags: N-terminal His;;GST cleaved with precision protease; copies: 1;1;1; label: 5'-FAM on sense strand; blunt.

The target in another data set is HIRA-WB;UBN1-NM (human;human, UniProt P54198;Q9NPG3 1-473;1-584, |). The data set is described as above. As to conditions: protein: recombinant;recombinant; tags: N-terminal His;; copies: 1;1; label: 5'-FAM on sense strand; blunt.

B1: 10x ATGC 40-mer dsDNA (dsDNA)
DNA 1: ATGCATGCATGCATGCATGCATGCATGCATGCATGCATGC
DNA 2: GCATGCATGCATGCATGCATGCATGCATGCATGCATGCAT
Take B1: the Kd with HIRA-WB;UBN1-NM;H3.3/H4 worked out at 40 nM; with H3.3/H4, 240 nM; with HIRA-WB;UBN1-NM;ASF1a-C, 970 nM; in the data set with HIRA-WB;UBN1-NM, 370 nM.
